Data taken from paper PMC5446404, “Fortilin binds IRE1α and prevents ER stress from signaling apoptotic cell death” (Nature Communications, 2017).

How the values were obtained:
GST-IRE1α-C (aa 468-977) = GST-IRE1α-C (aa 468-977) (human, UniProt O75460 468-977); assay: cell-based or functional assay
bovine serum albumin = target: T1, bovine serum albumin (bovine, UniProt P02769 25-607); assay: BLI; BLItz (ForteBio); biotinylated fortilin immobilised on streptavidin-coated biosensors (25 μg/mL, 600 s), buffer exchange in PBS; analyte at various concentrations for 180 s, dissociation in PBS for 300 s; three independent experiments; settings: both partners purified
T1 construct: serum albumin, bovine; negative control of the biolayer interferometry; also called BSA; source: bought: Sigma-Aldrich
T1 sequence (P02769 25-607): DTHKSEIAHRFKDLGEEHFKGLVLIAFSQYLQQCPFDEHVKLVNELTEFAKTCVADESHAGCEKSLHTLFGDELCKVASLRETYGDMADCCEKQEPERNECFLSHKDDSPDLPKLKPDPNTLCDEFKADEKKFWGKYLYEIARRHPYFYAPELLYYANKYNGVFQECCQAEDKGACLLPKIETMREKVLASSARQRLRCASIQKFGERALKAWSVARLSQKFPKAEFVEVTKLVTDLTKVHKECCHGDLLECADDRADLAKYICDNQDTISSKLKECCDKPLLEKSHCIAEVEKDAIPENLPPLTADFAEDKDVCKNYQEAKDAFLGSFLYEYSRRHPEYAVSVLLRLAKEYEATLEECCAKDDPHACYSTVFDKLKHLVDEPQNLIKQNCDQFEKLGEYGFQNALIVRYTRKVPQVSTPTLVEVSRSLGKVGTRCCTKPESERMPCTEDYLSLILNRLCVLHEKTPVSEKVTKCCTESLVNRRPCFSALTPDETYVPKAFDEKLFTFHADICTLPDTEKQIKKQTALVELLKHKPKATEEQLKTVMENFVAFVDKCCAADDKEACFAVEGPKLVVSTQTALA

GST-IRE1α-C (aa 468-977), sequence (O75460 468-977): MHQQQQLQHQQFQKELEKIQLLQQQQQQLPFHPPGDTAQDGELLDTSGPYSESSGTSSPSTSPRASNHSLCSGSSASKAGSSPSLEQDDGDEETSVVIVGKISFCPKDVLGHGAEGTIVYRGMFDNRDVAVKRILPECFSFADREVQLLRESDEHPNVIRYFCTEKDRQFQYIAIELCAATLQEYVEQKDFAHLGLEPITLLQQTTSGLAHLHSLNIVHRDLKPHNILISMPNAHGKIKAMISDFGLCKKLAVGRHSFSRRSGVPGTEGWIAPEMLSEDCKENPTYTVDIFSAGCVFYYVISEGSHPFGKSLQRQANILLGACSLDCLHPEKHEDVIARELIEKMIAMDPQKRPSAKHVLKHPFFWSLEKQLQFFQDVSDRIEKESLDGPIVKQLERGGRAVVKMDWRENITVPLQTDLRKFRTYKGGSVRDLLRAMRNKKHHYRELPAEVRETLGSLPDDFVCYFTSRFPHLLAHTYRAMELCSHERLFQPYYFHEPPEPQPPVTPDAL

B1: recombinant human fortilin (Strep-tag II), biotinylated (natural protein, UniProt P13693 1-172, looked up)
chain: MIIYRDLISHDEMFSDIYKIREIADGLCLEVEGKMVSRTEGNIDDSLIGGNASAEGPEGEGTESTVITGVDIVMNHHLQETSFTKEAYKKYIKDYMKSIKGKLEEQRPERVKPFMTGAAEQIKHILANFKNYQFFIGENMNPDGMVALLDYREDGVTPYMIFFKDGLEMEKC
modifications: biotinylated (sites not given)
notes: fortilin (translationally controlled tumor protein), human, described as a 172-amino-acid polypeptide; cDNA encoding human fortilin cloned into pESG-IBA5; Biotinylated for BLI; also called translationally controlled tumor protein; Strep-tagged fortilin; source: 293T cells stably expressing it, purified (Strep-Tactin-Superflow resin)
- in vitro IRE1α kinase activity: incorporation of γ-33P from [γ-33P]ATP into myelin basic protein; IC50 of fortilin (GST-IRE1α-C (aa 468-977)): 0.77 µM
- Kd (bovine serum albumin): 1050 µM
